Test results as given in patent US20150272562A1 (ETHICON, published 2015).

Experiments:
[1] = target: T1, fibrin monomers, dimers and/or oligomers (UniProt P02671 36-629; P02675 45-491; P02679 27-437); experiment: cell-based or functional assay
T1 sequence (looked up) 1: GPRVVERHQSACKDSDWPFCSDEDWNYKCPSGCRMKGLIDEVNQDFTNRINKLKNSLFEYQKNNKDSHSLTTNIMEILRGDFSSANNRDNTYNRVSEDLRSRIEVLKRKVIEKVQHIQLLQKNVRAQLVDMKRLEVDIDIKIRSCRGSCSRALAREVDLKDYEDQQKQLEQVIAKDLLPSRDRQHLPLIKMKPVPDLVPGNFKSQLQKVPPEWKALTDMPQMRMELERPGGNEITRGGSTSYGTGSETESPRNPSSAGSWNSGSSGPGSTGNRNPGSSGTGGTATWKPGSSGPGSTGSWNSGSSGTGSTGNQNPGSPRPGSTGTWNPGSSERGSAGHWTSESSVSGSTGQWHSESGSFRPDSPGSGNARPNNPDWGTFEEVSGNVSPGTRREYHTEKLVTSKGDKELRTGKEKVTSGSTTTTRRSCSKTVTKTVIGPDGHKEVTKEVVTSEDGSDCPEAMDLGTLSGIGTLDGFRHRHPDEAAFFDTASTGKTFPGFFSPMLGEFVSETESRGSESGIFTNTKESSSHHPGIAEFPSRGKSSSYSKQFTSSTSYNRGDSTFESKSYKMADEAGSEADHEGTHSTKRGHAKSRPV
T1 sequence (looked up) 2: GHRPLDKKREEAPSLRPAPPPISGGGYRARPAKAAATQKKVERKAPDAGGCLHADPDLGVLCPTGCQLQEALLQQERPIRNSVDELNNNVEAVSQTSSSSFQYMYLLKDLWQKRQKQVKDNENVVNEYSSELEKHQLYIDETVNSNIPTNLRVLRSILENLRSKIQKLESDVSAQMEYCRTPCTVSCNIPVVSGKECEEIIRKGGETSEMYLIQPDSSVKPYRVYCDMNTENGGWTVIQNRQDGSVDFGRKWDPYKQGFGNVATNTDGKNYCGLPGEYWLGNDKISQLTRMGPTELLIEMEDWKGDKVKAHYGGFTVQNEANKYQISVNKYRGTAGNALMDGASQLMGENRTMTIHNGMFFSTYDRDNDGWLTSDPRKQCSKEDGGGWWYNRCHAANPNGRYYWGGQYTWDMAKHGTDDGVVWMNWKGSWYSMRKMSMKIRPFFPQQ
T1 sequence (looked up) 3: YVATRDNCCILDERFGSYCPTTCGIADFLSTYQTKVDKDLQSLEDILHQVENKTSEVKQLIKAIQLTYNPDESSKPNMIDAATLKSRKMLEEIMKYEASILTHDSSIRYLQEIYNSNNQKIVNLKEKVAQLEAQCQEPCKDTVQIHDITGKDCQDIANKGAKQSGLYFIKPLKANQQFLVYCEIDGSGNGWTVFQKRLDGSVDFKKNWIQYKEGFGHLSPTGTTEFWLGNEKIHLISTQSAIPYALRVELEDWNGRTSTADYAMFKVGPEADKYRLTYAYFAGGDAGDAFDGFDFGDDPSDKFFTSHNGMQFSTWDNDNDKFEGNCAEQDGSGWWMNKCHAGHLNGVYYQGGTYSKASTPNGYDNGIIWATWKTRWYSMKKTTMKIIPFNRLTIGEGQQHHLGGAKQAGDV

[2] = target: T1, fibrin monomers, dimers and/or oligomers; experiment: cell-based or functional assay; remark: listed apart in the source

- fibrin polymerization; 40 mM GPRP, molar ratio above 340:1 GPRP:fibrin [1]: > 14 days
- Time to clot (cessation of flow on tube inversion); GPRP 0.1 mM, 1.1-fold GPRP:fibrin, 3% fibrin, thrombin 100 IU/ml [2]: 5 s
- Time to clot (cessation of flow on tube inversion); GPRP 0.2 mM, 2.3-fold GPRP:fibrin, 3% fibrin, thrombin 100 IU/ml [2]: 7 s
- Time to clot (cessation of flow on tube inversion); GPRP 0.5 mM, 5.7-fold GPRP:fibrin, 3% fibrin, thrombin 100 IU/ml [2]: 11 s
- Time to clot (cessation of flow on tube inversion); GPRP 1 mM, 11.3-fold GPRP:fibrin, 3% fibrin, thrombin 100 IU/ml [2]: 13 s
- Time to clot (cessation of flow on tube inversion); GPRP 1.5 mM, 17-fold GPRP:fibrin, 3% fibrin, thrombin 100 IU/ml [2]: 22 s
- Time to clot (cessation of flow on tube inversion); GPRP 2 mM, 22.7-fold GPRP:fibrin, 3% fibrin, thrombin 100 IU/ml [2]: 28 s
- Time to clot (cessation of flow on tube inversion); GPRP 3 mM, 34-fold GPRP:fibrin, 3% fibrin, thrombin 100 IU/ml [2]: 2.5 min
- Time to clot (cessation of flow on tube inversion); GPRP 4 mM, 45-fold GPRP:fibrin, 3% fibrin, thrombin 100 IU/ml [2]: 8 min
- Time to clot (cessation of flow on tube inversion); GPRP 5 mM, 56.7-fold GPRP:fibrin, 3% fibrin, thrombin 100 IU/ml [2]: 15 min
B1: GPRP peptide (Gly-Pro-Arg-Pro) (peptide)
peptide: GPRP
